According to patent US20120093837A1 (CELL SIGNALING TECHNOLOGY INC A, published 2012):

What was measured:
[1] = biological target: T1, human EGFR with E746-A750 deletion (human, UniProt P00533 25-1210); assay: IHC on paraffin-embedded xenografts and cell pellets
T1 construct: Endogenous mutant EGFR of HCC827 and H1650 cells and of NSCLC tumor samples; also called EGFR (E746-A750del); dEGFR
Method: To test the specificity of binding of the rabbit monoclonal antibodies described in Example 1, xenografts were prepared of human cancer cells in nude mice.
For […] analysis, all analyses were performed on formalin-fixed, paraffin-embedded blocks. Serial 4-um-thick tissue sections were cut from TMAs for immunohistochemistry study. The slides were baked at 55° C. overnight, then deparaffinized in xylene and rehydrated through a graded series of ethanol concentrations. Antigen retrieval (microwave boiling for 10 minutes in 1 mM EDTA) was performed. Intrinsic peroxidase activity was blocked by 3% hydrogen peroxide for 10 min. 5% goat serum (Sigma) solution was used for blocking nonspecific antibody binding, and the optimally diluted primary antibodies were applied to cover the specimen. Slides were incubated at 4° C. overnight. After three washes in TBS-T for 5 minutes each, slides were incubated for 30 min with labeled polymer-HRP anti-rabbit secondary antibody at room temperature. Following three additional washes in TBS-T, slides were visualized using substrate-chromagen (Envision™+kit, commercially available from Dako). Sections were scanned at low magnification. Intensity of the staining as well as percentage of positive cells was recorded. Stain intensity was scored from 0 to 3+, based on the, staining intensity and percentage of positive cells were recorded.

[2] = biological target: phage-displayed peptide …; assay: phage display biopanning on plate-coated antibody, PhD 12 library, three rounds

B1: EGFR L858R (43B2E11E5B2) rabbit monoclonal antibody (antibody, V domains shown)
VH: QSVEESGGRLVTPGTPLTLTCTVSGFSLNTYGVSWVRQAPGKGLEWIGYIFTDGQTYYASWAKGRFTISKTSSTTVDLKITSPTTEDTATYFCASVDIWGPGTPVTVSS
VL: AQVLTQTPSPVSAAVGSTVTIKCQSSPSVYSNYLSWYQQKSGQPPKQLIYDASHLASGVPSRFSGSGSGTQFTLTISGVQCDDAATYYCLGSYDCSSVDCHAFGGGTEVVVKG
notes: Rabbit monoclonal from a hybridoma clone; also called L858R RmAb; L858R-specific antibody
What does the source list for B1?
binding result [1]: no binding; Clone Frequency [2]: 1 of 9 clones
